Key:
[1] = target: T1, human leukocyte antigen-DR (HLA-DR) on human lymphoma and leukemia cell lines and human lymphocytes (human); test: indirect flow cytometry, FITC-GAH Fc, SU-DHL-6 cells; none 4.6
[2] = target: T1, human leukocyte antigen-DR (HLA-DR) on …; test: indirect flow cytometry, Namalwa cells, FITC-GAH; none 2.52
[3] = target: T1, human leukocyte antigen-DR (HLA-DR) on …; test: indirect flow cytometry, FITC-GAH Fc, Raji cells; none 6.9
[4] = target: T1, human leukocyte antigen-DR (HLA-DR) on …; test: indirect flow cytometry, FITC-GAH Fc, Namalwa cells; none 2.6
[5] = target: T1, human leukocyte antigen-DR (HLA-DR) on …; test: indirect flow cytometry, FITC-GAH Fc, RL cells; none 2.4
[6] = target: T1, human leukocyte antigen-DR (HLA-DR) on …; test: indirect FACS, FITC-GAH Fc, Raji cells; none 6.8
[7] = target: T1, human leukocyte antigen-DR (HLA-DR) on …; test: indirect FACS, FITC-GAH Fc, Namalwa cells; none 2.5
[8] = target: T1, human leukocyte antigen-DR (HLA-DR) on …; test: indirect FACS, FITC-GAH Fc, WSU-FSCCL cells; none 2.6
[9] = target: T1, human leukocyte antigen-DR (HLA-DR) on …; test: indirect flow cytometry, FITC-GAH Fc, Daudi cells; none 3.2
[10] = target: T1, human leukocyte antigen-DR (HLA-DR) on …; test: indirect flow cytometry, FITC-GAH Fc, Ramos cells; none 3.1
[11] = target: T1, human leukocyte antigen-DR (HLA-DR) on …; test: indirect flow cytometry, FITC-GAH Fc, WSU-FSCCL cells; none 2.7
[12] = target: T1, human leukocyte antigen-DR (HLA-DR) on …; test: indirect FACS, FITC-GAH Fc, Daudi cells; none 3.1
[13] = target: T1, human leukocyte antigen-DR (HLA-DR) on …; test: indirect FACS, FITC-GAH Fc, Ramos cells; none 3.1
[14] = target: T1, human leukocyte antigen-DR (HLA-DR) on …; test: indirect FACS, FITC-GAH Fc, SU-DHL-6 cells; none 4.6

B1: hL243γ4P (humanized L243, IgG4/K isotype with hinge mutation Ser241Pro) (antibody, V domains shown)
VH: QVQLQQSGSELKKPGASVKVSCKASGFTFTNYGMNWVKQAPGQGLKWMGWINTYTREPTYADDFKGRFAFSLDTSVSTAYLQISSLKADDTAVYFCARDITAVVPTGFDYWGQGSLVTVSS
VL: DIQLTQSPSSLSASVGDRVTITCRASENIYSNLAWYRQKPGKAPKLLVFAASNLADGVPSRFSGSGSGTDYTFTISSLQPEDIATYYCQHFWTTPWAFGGGTKLQIKR
notes: Same V domains as hL243; human γ4 constant region with Ser241Pro (Kabat numbering) in the hinge, human kappa; also called hL243 (IgG4 isotype)
Geometric Mean Fluorescence [1]: 572 | GEO MEAN Fluorescence [2]: 324 | Geometric Mean Fluorescence [3]: 972 | Geometric Mean Fluorescence [4]: 261 | Geometric Mean Fluorescence [5]: 112 | Geometric Mean Fluorescence [6]: 972 | Geometric Mean Fluorescence [7]: 261 | Geometric Mean Fluorescence [8]: 467 | Geometric Mean Fluorescence [9]: 937 | Geometric Mean Fluorescence [10]: 278 | Geometric Mean Fluorescence [11]: 467 | Geometric Mean Fluorescence [12]: 937 | Geometric Mean Fluorescence [13]: 278 | Geometric Mean Fluorescence [14]: 572

Reference: patent publication US20100196266A1 (published 2010)
